Reference: US20170081406A1

What follows are substances tested against Human FcRn with human β2M on MDCK II clone 15 cells (human) (UniProt P55899) (assay: cell-based or functional assay).

Blockade of IgG recycling (% inhibition at 100 µg/ml)	Blockade of IgG intracellular uptake EC50	Blockade of IgG recycling EC50	Substance
45			IgG1 IgM tail-piece, H310L (Fc-multimer) (Fc fusion)
	0.54 µg/mL	0.35 µg/mL	IgG1 IgM tail-piece, T307A (Fc-multimer) (Fc fusion)
	0.12 µg/mL	0.073 µg/mL	IgG1 IgM tail-piece, V308F (Fc-multimer) (Fc fusion)
	0.34 µg/mL	0.55 µg/mL	IgG1 IgM tail-piece, V308P (Fc-multimer) (Fc fusion)
	4.4 µg/mL	0.33 µg/mL	IgG1 IgM tail-piece, Wild-type (Fc-multimer) (Fc fusion)
	0.5 µg/mL		IgG4 IgM tail-piece, T307A (Fc-multimer) (Fc fusion)
	0.42 µg/mL	0.56 µg/mL	IgG4 IgM tail-piece, V308F (Fc-multimer) (Fc fusion)
	0.51 µg/mL	0.42 µg/mL	IgG4 IgM tail-piece, V308P (Fc-multimer) (Fc fusion)
	5.9 µg/mL	1 µg/mL	IgG4 IgM tail-piece, Wild-type (Fc-multimer) (Fc fusion)

What follows are substances tested against Human FcRn with human β2M on MDCK II clone 15 cells (human) (UniProt P55899) (assay: not given).

EC50, inhibition of FcRn mediated IgG recycling (cell lysates), MDCK II clone 15 cells, biotinylated human IgG, MSD detection	EC50, inhibition of FcRn mediated IgG recycling (culture media), MDCK II clone 15 cells, biotinylated human IgG, MSD detection	Substance
0.37 µg/mL	0.33 µg/mL	IgG1 Fc IgM tp L309 (wild type IgG1 Fc-multimer) (from UniProt P0DOX5 228-449) (Fc fusion)
7.28 µg/mL		human IgG1 Fc-multimer IgM tp L309C (from UniProt P0DOX5 228-449) (Fc fusion)
